Experimental findings from patent publication US20190336589A1 (published 2019) are described below.

For assay [1], the target named is T1, PLP (myelin proteolipid protein) peptide on I-A^s (mouse, 3rd amino acid from the N terminus substituted from cysteine to serine; contains the serine-substituted epitope of SEQ ID NO: 20).
T1 peptide: RVSHSLGKWLGHPDKF
The experiment in a line: activation reporter or marker. As for the experimental part: The cultured cells were collected, and the 2E5 reporter T cells were stained with an APC-labeled anti-CD45 antibody (clone name: 30-F11, eBioscience). Then, the stained 2E5 reporter cells were analyzed by flow cytometry so as to determine the proportion of the GFP-positive cells in the CD45-positive cells. As Control 1, the proportion of the GFP-positive cells in the CD45-positive cells was analyzed in the same manner, except that the above-described medium was added instead of the IgG antibody.

Assay [2] has as its target T2, Hen egg lysozyme (HEL) peptide on I-A^k (mouse).
T2 peptide: DGSTDYGILQINSR
As to the kind of experiment: binding, other.

Assay [3] addresses Hen egg lysozyme (HEL) peptide on I-A^k (mouse). The experiment in a line: binding, other. This is another data set of the same source.
Target sequence in this assay (peptide, as listed by the source): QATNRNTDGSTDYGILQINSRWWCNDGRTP

B1: 2E5 TCR (TCR, V domains shown)
Valpha: GEKVEQHQSTLSVREGDSAVINCTYTDTASSYFPWYKQEAGKSLHFVIDIRSNVDRKQSQRLTVLLDKKAKRFSLHITATQPEDSAIYFCAASPGANTGKLTFGHGTILRVHP
Vbeta: VAGVTQTPRYLVKEEGQKAHMSCSPEKGHTAFYWYQQNQKQELTFLINFRNEEIMEQTDLVKKRFSAKCSSNSQCILEILSSEEDDSALYLCASSLVRGNSDYTFGSGTRLLVI
For B1, the binding result in assay [1] is on record as “recognises”.

B2: 3A9 TCR (TCR, V domains shown)
Valpha: AQSVTQPDARVTVSEGASLQLRCKYSYSGTPYLFWYVQYPRQGLQLLLKYYSGDPVVQGVNGFEAEFSKSNSSFHLRKASVHWSDSAVYFCALNSGGSNAKLAFGKGSKLSVKS
Vbeta: AVTQSPRNKVAVTGGKVTLSCNQTNNHNNMYWYRQDTGHGLRLIHYSYGAGSTEKGDIPDGYKASRPSQENFSLILELATPSQTSVYFCASGDESALPELYFGEGSKLTVL
B2: the binding result in assay [2] and in assay [3] was “recognises” each time.
